Results on 1 molecule are retold here after PMC2965261 (Nucleic Acids Research, 2010).

The assay concerns the target T1, Candida albicans Ino4 (C. albicans, UniProt A0A1D8PH18 1-130).
T1 sequence: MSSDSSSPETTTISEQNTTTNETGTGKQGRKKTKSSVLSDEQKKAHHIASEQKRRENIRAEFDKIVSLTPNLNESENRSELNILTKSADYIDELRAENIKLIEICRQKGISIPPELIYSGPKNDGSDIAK
The experiment in a line: two-hybrid.

B1: Candida albicans Ino2 (natural protein)
chain: MSSTVTQTMNNNPTEKVTFTASNSQADFDLLDIFSNDMDFEQAYDMYNNLQEKNAMGSFEQLQKVQALNQQYVSNLQPPSSAQFPDQFAYERAQILNGEYNKQSGLMNDATNKNYSFNDDTFDQFFTNTESNALEKFLDNLANPVASVNPLQFYNNTRTSVPDEDVDLSFELHTMKVPQQFKPRSQSLEHNPPLQQKVRFTEEEHAALKQELTEAFAHPCTQLPSPSTTEYKPKPTTPKVVKQFVTPPNSGDESRKRNSDIESDESEEETTPTTKKRKRTSSKPLLSVEQKRLNHSHSEQKRRQLCKFAYQRCLELIIDLDAFNKLPELNESERKSKRARVNKDGLPNLSKHNALIRISNEMILIKSMNDSLKKLIENR
In the case of B1, the “galactosidase activity, fold of the background activity” value is 2.5 fold.
